Results from patent publication US20160289298A1.

Key:
TGFβ2 = TGFβ2 (UniProt P61812); assay: SPR (Biacore), receptor-Fc captured by anti-Fc antibody, ligand injected
TGFβ1 = TGFβ1 (UniProt P01137); assay: as above
Chain of TGFβ1 (P01137 279-390 limits assumed): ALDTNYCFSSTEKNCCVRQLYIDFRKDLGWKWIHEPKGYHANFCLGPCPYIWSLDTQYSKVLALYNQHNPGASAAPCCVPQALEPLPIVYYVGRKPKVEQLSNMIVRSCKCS

Chain of TGFβ2 (P61812 303-414 limits assumed): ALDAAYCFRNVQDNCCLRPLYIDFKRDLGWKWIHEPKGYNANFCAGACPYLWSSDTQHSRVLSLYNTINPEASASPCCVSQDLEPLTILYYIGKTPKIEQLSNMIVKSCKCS

Kd (TGFβ2): > 44 nM
Kd (TGFβ1): 0.025 nM
Substance: TGFβRII-Fc homodimeric complex (from UniProt P37173 23-159) (Fc fusion)
